T1: B7H6 protein overexpressed in HL60 cells (human, UniProt Q68D85 25-454)
T1 construct: Full-length entry expressed from a lentiviral vector; also called HL60-B7H6
T1 sequence: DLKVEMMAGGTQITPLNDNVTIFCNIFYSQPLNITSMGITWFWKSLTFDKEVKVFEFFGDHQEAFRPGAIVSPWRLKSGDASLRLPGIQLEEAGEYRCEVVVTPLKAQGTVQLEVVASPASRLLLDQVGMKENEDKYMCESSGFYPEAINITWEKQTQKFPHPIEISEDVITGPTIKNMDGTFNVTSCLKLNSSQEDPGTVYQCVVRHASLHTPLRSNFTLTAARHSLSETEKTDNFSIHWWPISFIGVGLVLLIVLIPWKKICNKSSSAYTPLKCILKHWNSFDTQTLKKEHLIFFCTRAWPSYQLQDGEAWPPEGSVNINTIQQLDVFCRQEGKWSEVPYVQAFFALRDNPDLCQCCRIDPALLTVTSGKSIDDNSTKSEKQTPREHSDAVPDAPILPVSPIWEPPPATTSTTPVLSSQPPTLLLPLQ

B1: murine antibody 12F5 (antibody, mouse IgG2a, kappa, V domains shown)
VH: QVQLQQSGAELVKPGASVKLSCKASGYTFTSYYMYWVKQRPGQGLEWIGEINPSNGGTNFNEKFKSKATLTVDKSSSTAYMQLSSLTSEDSAVYYCTRTLYYGNDWYFDVWGAGTTVTVSS
VL: QIVLTQSPAIMSASPGEKVTMTCSASSSVNYMHWYQQKSGTSPKRWIYDTSKLASGVPARFSGSGSGTSYSLTISSMEAEDAATYYCQQWSSNPVTFGAGTKLELKR
notes: also called murine 12F5; B7H6 murine 12F5 antibody
B2: murine antibody 12G4 (antibody, mouse IgG2a, kappa, V domains shown)
VH: EVLLQQSGPEVVKPGASVKITCKASGYTFTDYNMDWVKQSHGKSLEWIGDINPNNGGTLYNQKFRGRVTLIVDKSSSTAYMELRSLTSDDTAVYYCARSEVFYGNYADYWGQGTTLTVSS
VL: DIVLTQSPVSLAVPLGQRATISCKASQSVDYDGDSYMNWYQQKPGQPPKLLIYAASTLHSGIPVRFSGSGSGTDFTLNIHPVEEEDAASYYCQQSKEDPRTFGGGTKLEIKR
notes: also called murine 12G4
B3: humanized antibody h12G4 (antibody, human IgG1, kappa, V domains shown)
VH: EVQLVQSGAEVKKPGASVKVSCKASGYTFTDYNMDWVRQAPGKGLEWIGDINPNNGGTLYNQKFRGRVTLTVDKSISTAYMELSRLRSDDTAVYYCARSEVFYGNYADYWGQGTTVTVSS
VL: DIVLTQTPLSLSVTPGQPASISCKASQSVDYDGDSYMNWYLQKPGQPPQLLIYAASTLHSGVPDRFSGSGSGTDFTLKISRVEAEDVGVYYCQQSKEDPRTFGQGTKLEIKR
notes: also called humanized 12G4
B4: humanized antibody h12F5 (antibody, human IgG1, kappa, V domains shown)
VH: EVQLVQSGAEVKKPGASVKVSCKASGYTFTSYYMYWVRQAPGQGLEWIGEINPSNGGTNFNEKFKSRVTLTVDKSISTAYMELSRLRSDDTAVYYCTRTLYYGNDWYFDVWGQGTTVTVSS
VL: EIVLTQSPDFQSVTPKEKVTITCSASSSVNYMHWYQQKPDQSPKRLIYDTSKLASGVPSRFSGSGSGTDYTLTINSLEAEDAATYYCQQWSSNPVTFGQGTKLEIKR
notes: also called humanized 12F5

Tests used:
[1] = target: T2, recombinant B7H6 extracellular region Fc fusion protein (human); experiment: SPR, Biacore T200, B7H6-Fc amine-coupled to CM5 chip, antibody injected, 1:1 Langmuir model; murine 12F5
T2 construct: also called B7H6-Fc; B7H6-Fc fusion protein
Procedure: (§1) The Biacore method is widely-recognized as an objective method for detecting the mutual affinity and binding kinetics of proteins. The affinity and binding kinetics of the B7H6 antibody of the present disclosure are analyzed and characterized through Biacore T200.
(§2) The B7H6 extracellular segment Fc fusion protein (B7H6-Fc) was covalently attached to a CM5 (GE) chip using standard amino coupling methods. A series of concentration gradients of B7H6 antibody diluted in PBS were then injected with each cycle and regenerated with 10 mM NaOH solution. The antigen-antibody binding kinetics were traced for 3 minutes and the dissociation kinetics were traced for 10 minutes, and the resulting data were analyzed by a 1:1 (Langmuir) binding model using GE's BIAevaluation software.

[2] = target: T1, B7H6 protein overexpressed in HL60 cells; experiment: flow cytometry on HL60-B7H6 cells, Alexa-647 goat anti-mouse secondary antibody, binding ratio (%)
Procedure: The flow cytometry assay was used to detect the binding characteristics of B7H6 antibody and to overexpress B7H6 protein (HL60-B7H6, SEQ ID NO. 21; SEQ ID NO. 54) in HL60 cells (ATCC NO. CCL-240). The expression vector is pLVX-EF1a-B7H6-IRES-ZsGreen, and the signal strength after antibody addition is used to determine the binding characteristics of the antibody and B7H6.
HL60-B7H6 cells were diluted to 2×10⁶/mL with PBS and were added to a 1.5 ml EP tube at 100 μL/tube. Goat serum at 10 μL/tube was added thereto and was blocked at 4° C. for 30 min. The B7H6 antibody was added at 1 μg/tube and incubated for 30 min at 4° C. The EP tube was added with 1 mL of PBS and centrifuged at 3500 rpm at 4° C. for 5 min. The supernatant was discarded and the precipitate was washed once more with PBS. After centrifugation, the supernatant was discarded, and the cells were resuspended with 100 μl/tube of PBS, and 0.1 μL/tube of goat anti-mouse antibody secondary antibody (Invitrogen) labeled with Alexa-647 was added thereto, and incubated at 4° C., under the condition of avoiding light, for 30 min. The cell-containing precipitate was washed twice with PBS and the supernatant was discarded after centrifugation. The cells were resuspended with 200 μL/tube of PBS and detected by flow cytometry.

[3] = target: T2, recombinant B7H6 extracellular region …; experiment: ELISA, B7H6-Fc coated at 1 ug/mL, HRP anti-mouse secondary antibody, OD450
Procedure: The ELISA assay was used to detect the binding characteristics of the B7H6 antibody. The B7H6 extracellular region Fc fusion protein (B7H6-Fc) described above was coated into a 96-well plate. The signal strength after antibody addition was used to determine the binding characteristic of the antibody and B7H6.
The B7H6-Fc fusion protein (amino acid sequence as set forth in SEQ ID NO. 22) was diluted to 1 μg/mL with PBS buffer and added to a 96-well plate in a volume of 100 μL/well and left overnight at 4° C. The PBS buffer solution was sucked off from the 96-well plate. The plate was washed 6 times with PBST (pH 7.2, PBS containing 0.1% Tween 20) buffer solution. 200 μL/well PBS/10% BSA was added and incubated at 37° C. for 2 hours for blocking. The blocking solution was removed. The plate was washed 6 times with PBST. 100 μL/well B7H6 antibody to be tested was diluted to an appropriate concentration with PBST/0.05% BSA, and incubated at 37° C. for 1 h. The reaction system was removed. The plate was washed 6 times with PBST. HRP (horseradish peroxidase)-labeled anti-mouse antibody secondary antibody was diluted with PBST/0.05% BSA at 100 μL/well and incubated for 1 h at 37° ° C. The plate was washed 6 times with PBST and 80 μL/well TMB (tetramethylbenzidine) was added. […] The absorbance at […] was read with a microplate reader.

[4] = target: T2, recombinant B7H6 extracellular region …; experiment: SPR, Biacore T200, B7H6-Fc amine-coupled to CM5 chip, antibody injected, 1:1 Langmuir model; murine 12G4
Procedure: as §1, §2

[5] = target: T3, recombinant Cynomolgus monkey B7H6 extracellular region Fc fusion protein (Cynomolgus monkey); experiment: ELISA, cynoB7H6-Fc coated at 1 ug/mL, HRP mouse anti-human IgG (Fab-specific) secondary antibody, OD450
T3 construct: also called cynoB7H6-Fc; cynoB7H6-Fc fusion protein
Procedure: The ELISA assay was used to detect the binding characteristics of the humanized B7H6 antibody. The Cynomolgus monkey B7H6 extracellular Fc fusion protein (cynoB7H6-Fc) was coated into a 96-well plate. The signal strength after antibody addition was used to determine the binding characteristics of the antibody and monkey B7H6.
The cynoB7H6-Fc fusion protein (amino acid sequence as set forth in SEQ ID NO. 23) was diluted to 1 μg/mL with PBS buffer and added to a 96-well plate in a volume of 100 μL/well and left overnight at 4° C. The PBS buffer solution was sucked off from the 96-well plate. The plate was washed 6 times with PBST (pH 7.2, PBS containing 0.1% Tween 20) buffer solution. 200 μL/well of PBS/10% BSA was added and incubated at 37° C. for 2 hours for blocking. The blocking solution was removed. The plate was washed 6 times with PBST. B7H6 antibody to be tested which was diluted with PBST/0.05% BSA to an appropriate concentration was added at 100 µL/well, and incubated at 37° C. for 1 h. The reaction system was removed. The plate was washed 6 times with PBST. HRP (horseradish peroxidase)-labeled mouse anti-human IgG (Fab-specific) secondary antibody (Sigma) was diluted with PBST/0.05% BSA at 100 μL/well and incubated for 1 h at 37° C. […] The absorbance at […] was read with a microplate reader.

[6] = target: T1, B7H6 protein overexpressed in HL60 cells; experiment: flow cytometry on HL60-B7H6 cells, Alexa-647 mouse anti-human IgG-Fc secondary antibody, binding ratio (%)
Procedure: The flow cytometry assay was used to detect the binding characteristics of the B7H6 antibody. The B7H6 protein (HL60-B7H6) was overexpressed in HL60 cells (ATCC No. CCL-240) (as shown in Example 3), and the signal strength after antibody addition was used to determine the binding characteristics of the antibody and B7H6.
HL60-B7H6 cells were diluted to 2×10⁶/mL with PBS and added to a 1.5 mL EP tube in a volume of 100 μL/tube. 10 μL/tube of mouse serum was added thereto and was blocked at 4° C. for 30 min. The humanized B7H6 antibody was added at 1 μg/tube and incubated for 30 min at 4° C. The EP tube was added with 1 mL of PBS and centrifuged at 3500 rpm at 4° C. for 5 min. The supernatant was discarded and the precipitate was washed once more with PBS. After centrifugation, the supernatant was discarded. The cells were resuspended with 100 μL/tube of PBS, 1 μL/tube of Alexa-647-labeled mouse anti-human IgG-Fc secondary antibody (Biolegend) was added thereto, and incubated at 4° C., under the condition of avoiding light, for 30 min. The cell-containing precipitate was washed twice with PBS and the supernatant was discarded after centrifugation. The cells were resuspended with 200 μL/tube of PBS and detected by flow cytometry.

[7] = target: T2, recombinant B7H6 extracellular region …; experiment: ELISA, B7H6-Fc coated at 1 ug/mL, HRP mouse anti-human IgG (Fab-specific) secondary antibody, OD450
Procedure: The ELISA assay was used to detect the binding characteristics of the humanized B7H6 antibody. The B7H6 extracellular region Fc fusion protein (B7H6-Fc) described above was coated into a 96-well plate. The signal strength after antibody addition was used to determine the binding characteristics of antibodies and B7H6.
The B7H6-Fc fusion protein (amino acid sequence as set forth in SEQ ID NO. 22) was diluted to 1 μg/mL with PBS buffer and added to a 96-well plate in a volume of 100 μL/well and left overnight at 4° C. The PBS buffer solution was sucked off from the 96-well plate. The plate was washed 6 times with PBST (pH 7.2, PBS containing 0.1% Tween 20) buffer solution. 200 μL/well PBS/10% BSA was added and incubated at 37° C. for 2 hours for blocking. The blocking solution was removed. The plate was washed 6 times with PBST. B7H6 antibody to be tested which diluted with PBST/0.05% BSA to an appropriate concentration was added at 100 µL/well, and incubated at 37° C. for 1 h. The reaction system was removed. The plate was washed 6 times with PBST. HRP (horseradish peroxidase)-labeled mouse anti-human IgG (Fab-specific) secondary antibody (Sigma) was diluted with PBST/0.05% BSA at 100 μL/well and incubated for 1 h at 37° C. The plate was washed 6 times with PBST, and 80 μL/well TMB (tetramethylbenzidine) was added. […] The absorbance at […] was read with a microplate reader.

T3 sequence (chain, as listed by the source limits assumed): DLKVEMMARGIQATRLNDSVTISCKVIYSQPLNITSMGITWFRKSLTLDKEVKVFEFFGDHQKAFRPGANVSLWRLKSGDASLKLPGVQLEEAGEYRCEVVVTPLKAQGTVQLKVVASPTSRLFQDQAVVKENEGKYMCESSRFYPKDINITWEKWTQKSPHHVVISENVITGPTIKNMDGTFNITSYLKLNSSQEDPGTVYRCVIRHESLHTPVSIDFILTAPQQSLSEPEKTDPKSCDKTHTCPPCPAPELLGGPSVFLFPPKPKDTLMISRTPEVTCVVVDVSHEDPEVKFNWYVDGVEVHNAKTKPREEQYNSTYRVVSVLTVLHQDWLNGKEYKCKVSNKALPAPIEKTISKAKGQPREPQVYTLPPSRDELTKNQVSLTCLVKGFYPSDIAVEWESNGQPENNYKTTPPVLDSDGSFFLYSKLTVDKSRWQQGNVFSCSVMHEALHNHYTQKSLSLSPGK

Binder | Kd [1] | EC50 (read off the curve) [2] | EC50 (read off the curve) [3] | Kd [4] | binding result [5] | EC50 (read off the curve) [6] | EC50 (read off the curve) [7]
B1 | 2.2 nM | ~0.006 µg/mL | ~0.03 µg/mL |  |  |  | 
B2 |  | ~0.01 µg/mL | ~0.03 µg/mL | 0.15 nM |  |  | 
B3 |  |  |  |  | binds | ~0.05 µg/mL | ~0.05 µg/mL
B4 |  |  |  |  |  | ~0.03 µg/mL | ~0.02 µg/mL
